Test results from the supplement of paper PMC10567573.

B1: ADAMTS4 (parent)
chain: HVDPEEPWSPCSARFITDFLDNGY
B2: NFE2L1 (parent)
chain: TLDGYGIHPKSIDLDNYFTARRLL

Variants of: B1
Experiment: protein stability index of a GFP-peptide fusion (GPS, HEK-293T) (PSI 1-6); higher = more stable
Settings: c terminus: a fixed tail appended
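Also: lentivirally expressed fusions sorted by FACS into six bins by GFP to DsRed ratio, PSI derived from sequencing read proportions per bin multiplied by bin number.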

Protein stability index of substitutions, site by site:
D18: C 2.73; A 2.2; E 1.99
R14: Q 2; W 1.58; P 1.87; G 2.15; M 1.51; T 1.83; S 2.02; H 1.84; E 2.58; A 2.05; Y 1.71; I 2.28; N 1.86; D 2.45; L 2.13; C 1.66; V 1.56; F 2.27; K 2.32
P4: M 1.77; S 1.9; A 1.63; H 2.21; V 1.62; E 2.07; L 1.63; W 1.69; F 1.63; D 2.11; I 1.77; C 2.23; G 2.9; R 2.42; Q 1.9; K 1.87; T 1.8; N 1.95; Y 1.98
F15: I 1.71; T 1.64; R 2.25; A 1.94; Q 1.77; M 1.91; G 2.71; H 1.98; Y 2.01; D 2.47; C 1.97; V 1.91; E 2.65; L 1.96; W 1.64; S 1.88; P 2.08; N 2.04; K 2.07
W8: D 3.66; V 3.5; F 2.29; T 3.54; M 2.82; E 3.92; P 3.49; G 3.2; R 3.36; L 3.24; I 3.34; Y 2.89; H 3.44; C 3.39; K 3.48; Q 3.37; A 3.47; S 3.27; N 2.95
V2: K 2.62; G 2.9; N 2.48; T 2.2; R 2.4; F 2.14; W 2.08; I 2.56; M 2.75; H 2.37; S 2.55; Q 2.16; A 2.36; L 2.23; Y 2.05; C 2.09; P 2.23; E 3.19; D 3
E6: V 1.79; M 2.59; T 1.77; G 1.92; A 1.85; Y 2.07; P 2.72; N 1.94; L 2.05; R 2.44; I 1.56; K 1.64; C 2.21; Q 2.24; S 2.43; F 2.19; W 2.57; H 1.74; D 1.76
S12: Q 2.1; E 1.88; G 1.61; T 1.47; A 1.68; P 1.4; C 1.8; R 1.97; I 2.16; M 1.57; K 1.55; H 2.31; V 2.01; N 2.05; F 1.86; W 1.67; L 2.12; D 2.39; Y 1.83
H1: D 2.4; E 2.76; T 2.77; M 1.95; G 2.81; V 2.04; K 1.91; R 2.26; Y 2.29; F 3.17; A 2.09; S 2.54; N 2.37; I 2.1; P 2.57; C 2.17; L 1.78; W 1.78; Q 2.31
P7: D 2.7; Q 1.72; W 2.54; A 1.48; V 2.56; K 1.89; E 2.67; F 2.85; N 1.74; C 2.11; G 1.92; I 1.61; S 2.35; R 2.14; Y 2.79; L 3.65; H 1.57; T 1.9; M 2.23
E5: S 2.35; H 1.66; P 2.29; F 2.72; G 2.13; W 2.79; Y 3.13; V 1.92; T 2.96; R 2.77; L 2.31; D 1.9; N 1.96; Q 2.43; A 2.37; C 2.19; K 2.58; I 2.32; M 2.17
A13: G 1.5; Y 1.67; I 2.19; V 2.54; H 1.85; F 1.92; C 2.54; Q 1.97; L 1.88; D 2.35; R 1.87; N 2.33; T 1.79; M 2.18; K 2.08; E 2.1; P 1.89; W 1.95; S 1.89
P10: W 2.08; M 2.14; C 1.5; Q 2.1; H 1.81; S 2.49; D 2.22; E 2.48; A 1.75; G 1.88; I 2.1; R 1.83; L 1.72; Y 1.79; T 1.92; V 1.74; K 2.21; N 1.99; F 1.92
S9: Q 1.62; N 1.67; C 2.08; A 2.05; L 1.67; P 2.32; G 2.24; T 1.79; V 1.66; M 1.77; F 1.93; W 1.75; D 2.79; R 1.93; Y 1.85; I 2.29; K 1.97; E 3.19; H 2.17
D3: H 1.98; R 1.8; S 2.48; L 1.78; F 1.79; V 1.77; I 1.55; C 2.63; Y 1.11; P 1.85; W 1.34; G 2.78; E 1.75; M 1.89; A 1.69; Q 2.49; K 1.76; T 2.04; N 2.21
I16: N 2.19; S 1.98; D 1.94; V 1.97; C 1.59; F 1.63; A 2.13; R 2.84; T 1.74; P 1.81; H 1.72; W 1.55; Q 2.07; L 1.67; Y 1.89; E 2.33; G 2.27; M 1.69; K 1.73
C11: R 1.7; Q 2.18; A 2.41; D 2.05; S 2.19; I 1.79; F 2.1; W 1.86; K 2.21; G 2.05; V 1.82; H 2.06; L 1.69; M 1.6; E 2; N 1.9; P 2; Y 3.06; T 2.15
T17: E 1.57; F 1.41; M 2.38; Y 1.83; L 2.39; Q 1.77; K 1.71; G 1.71; D 1.81; P 1.88; S 1.88; V 1.83; W 1.86; N 1.62; I 2.13; A 1.87; H 2.05; R 2.03; C 2.04

Variants of: B2
Experiment: as above
Settings: c terminus: a fixed tail appended

Protein stability index of substitutions, site by site:
L24: Y 1.72; Q 1.85; W 2.31; T 2.42; P 2.56; V 2.08; S 2.48; R 3.05
